Laboratory results as given in doi:10.1101/2025.03.24.644895.

Biological target: Avi-tagged human eIF4A1 full length (human) (UniProt P60842)
Assay: SPR

Avi-tagged human eIF4A1 full length (human), sequence (P60842 whole entry): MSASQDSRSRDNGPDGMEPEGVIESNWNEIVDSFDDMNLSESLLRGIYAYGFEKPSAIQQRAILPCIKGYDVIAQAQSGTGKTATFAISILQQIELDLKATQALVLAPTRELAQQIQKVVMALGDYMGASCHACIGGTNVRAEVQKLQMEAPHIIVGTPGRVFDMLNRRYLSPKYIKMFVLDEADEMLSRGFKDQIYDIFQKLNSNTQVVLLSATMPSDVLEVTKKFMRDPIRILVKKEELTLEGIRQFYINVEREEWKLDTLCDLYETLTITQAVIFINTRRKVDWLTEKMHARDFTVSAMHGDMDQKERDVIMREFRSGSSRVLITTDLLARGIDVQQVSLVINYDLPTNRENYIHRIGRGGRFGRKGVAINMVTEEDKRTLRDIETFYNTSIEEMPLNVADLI

fold increase in binding affinity with hippuristanol against no compound: 5 fold
Substance: eIF4G-MIF (middle domain of eIF4G, residues 712-1011) (domain or fragment)
